Values quoted from earlier work as cited in publication PMC4651712.

Target: PTHR1 (Homo sapiens) (UniProt Q03431)
UniProt Q03431, sequence (Q03431 27-593): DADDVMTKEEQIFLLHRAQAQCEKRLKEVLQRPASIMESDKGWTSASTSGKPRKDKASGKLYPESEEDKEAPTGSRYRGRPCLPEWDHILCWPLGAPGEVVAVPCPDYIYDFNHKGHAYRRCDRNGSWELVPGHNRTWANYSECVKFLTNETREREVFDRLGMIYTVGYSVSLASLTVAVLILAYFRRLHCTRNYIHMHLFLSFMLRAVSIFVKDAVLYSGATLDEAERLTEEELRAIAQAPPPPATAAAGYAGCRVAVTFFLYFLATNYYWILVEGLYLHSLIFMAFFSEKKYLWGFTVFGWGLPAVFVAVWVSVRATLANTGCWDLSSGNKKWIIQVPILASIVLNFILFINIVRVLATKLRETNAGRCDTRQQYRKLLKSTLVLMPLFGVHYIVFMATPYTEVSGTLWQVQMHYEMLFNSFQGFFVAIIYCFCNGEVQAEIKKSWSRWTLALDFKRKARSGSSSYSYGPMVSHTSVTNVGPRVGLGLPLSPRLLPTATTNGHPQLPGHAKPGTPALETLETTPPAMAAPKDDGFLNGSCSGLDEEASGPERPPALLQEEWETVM

Kd: 1 nM
Substance: PTH (from UniProt P01270)
